Reference: patent publication US20150344580A1 (MSM PROTEIN TECHNOLOGIES, published 2015)

What was measured:
human CCR10 = target: T1, human CCR10 (human, UniProt P46092 1-362); assay: FACS, CHO-human CCR10 cells
T1 construct: whole, on cells; CHO cells
T1 sequence (looked up): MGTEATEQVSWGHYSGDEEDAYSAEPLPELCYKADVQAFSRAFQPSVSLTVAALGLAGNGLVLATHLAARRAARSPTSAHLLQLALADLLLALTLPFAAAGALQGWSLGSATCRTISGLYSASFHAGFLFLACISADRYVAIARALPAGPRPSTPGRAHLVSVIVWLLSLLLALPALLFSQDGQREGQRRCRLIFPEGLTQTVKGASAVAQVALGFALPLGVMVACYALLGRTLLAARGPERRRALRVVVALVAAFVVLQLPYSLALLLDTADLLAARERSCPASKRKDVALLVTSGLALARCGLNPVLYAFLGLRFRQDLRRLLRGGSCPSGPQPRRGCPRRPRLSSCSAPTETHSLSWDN

human CXCR3 = target: T2, human CXCR3 (human, UniProt P49682 1-368); assay: FACS, R1610-human CXCR3 cells
T2 construct: whole, on cells; R1610 cells
T2 sequence (looked up): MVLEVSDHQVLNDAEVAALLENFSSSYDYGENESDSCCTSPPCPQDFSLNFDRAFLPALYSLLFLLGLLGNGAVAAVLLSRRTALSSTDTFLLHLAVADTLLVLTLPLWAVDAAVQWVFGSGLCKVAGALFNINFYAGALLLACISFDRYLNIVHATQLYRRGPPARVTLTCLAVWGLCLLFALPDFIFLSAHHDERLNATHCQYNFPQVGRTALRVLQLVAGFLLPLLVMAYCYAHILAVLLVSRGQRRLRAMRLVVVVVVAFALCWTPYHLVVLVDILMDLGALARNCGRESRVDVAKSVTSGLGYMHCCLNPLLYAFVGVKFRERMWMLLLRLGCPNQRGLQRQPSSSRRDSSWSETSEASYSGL
Protocol: (§1) In more details, the cell staining procedure was: 5000-1000 cell suspension in 10 μl FACS buffer (1×PBS, 2.0% FBS, 0.2% sodium azide) was mixed with 10 μl of 200 nM the corresponding anti-CCR7 MAB and incubated on ice for 30 min. Washing step—after the incubation 150 μl of FACS buffer was added to the cell sample, the samples were mixed gently by up-down pipetting the cell suspension. Then the samples were centrifuged at 1100 rpm for 5 minutes, and supernatants were removed. Washing step was repeated ones. Then 10 μl of anti-human PE-(Fab)2 form Jackson Immuno Research Lab. #709-116-098 diluted 40 times in FACS buffer were added to the cells and the cells were re-suspended by up-down pipetting. After 20 min. incubation on ice in dark the washing step was repeated twice. The washed cells were mixed with 100 μl of FIX buffer (0.5% Paraformaldehyde solution in PBS). Fixed samples were stored in dark on ice and analyzed by FACS on Guava PCA-96 flow cytometer. The fluorescent signals collected from individual cells were obtained using fluorescence Activated Cell Sorter (FACS).

human CCR4 = target: T3, human CCR4 (human, UniProt P51679 1-360); assay: FACS, CHO-human CCR4 cells
T3 construct: whole, on cells; CHO cells
T3 sequence (looked up): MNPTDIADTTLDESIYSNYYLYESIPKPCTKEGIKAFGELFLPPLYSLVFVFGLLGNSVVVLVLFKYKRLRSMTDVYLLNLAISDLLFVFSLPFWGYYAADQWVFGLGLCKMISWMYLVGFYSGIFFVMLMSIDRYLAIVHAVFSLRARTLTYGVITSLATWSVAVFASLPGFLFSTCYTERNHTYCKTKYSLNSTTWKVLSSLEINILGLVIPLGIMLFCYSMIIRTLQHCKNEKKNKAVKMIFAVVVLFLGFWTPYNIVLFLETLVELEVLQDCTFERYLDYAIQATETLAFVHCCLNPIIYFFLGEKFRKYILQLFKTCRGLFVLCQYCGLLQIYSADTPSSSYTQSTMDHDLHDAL
Protocol: as §1, with “Washing” for “In more details, the cell staining procedure was: 5000-1000 cell suspension in 10 μl FACS buffer (1×PBS, 2.0% FBS, 0.2% sodium azide) was mixed with 10 μl of 200 nM the corresponding anti-CCR7 MAB and incubated on ice for 30 min. Washing”, “cytometer.” for “cytometer. The fluorescent signals collected from individual cells were obtained using fluorescence Activated Cell Sorter (FACS).”
In more details, the cell staining procedure was: […] cell suspension in 10 μl FACS buffer (1×PBS, 2.0% FBS, 0.2% sodium azide) was mixed with 10 μl of 200 nM the corresponding anti-CCR7 MAB and incubated on ice for 30 min. Washing step—after the incubation 150 μl of FACS buffer was added to the cell sample, the samples were mixed gently by up-down pipetting the cell suspension. […] Fixed samples were stored in dark on ice and analyzed by FACS on Guava PCA-96 flow cytometer. The fluorescent signals collected from individual cells were obtained using fluorescence Activated Cell Sorter (FACS).

human CXCR4 = target: T4, human CXCR4 (human, UniProt P61073 1-352); assay: FACS, Cf2th-human CXCR4 cells
T4 construct: whole, on cells; Cf2th cells
T4 sequence (P61073 whole entry): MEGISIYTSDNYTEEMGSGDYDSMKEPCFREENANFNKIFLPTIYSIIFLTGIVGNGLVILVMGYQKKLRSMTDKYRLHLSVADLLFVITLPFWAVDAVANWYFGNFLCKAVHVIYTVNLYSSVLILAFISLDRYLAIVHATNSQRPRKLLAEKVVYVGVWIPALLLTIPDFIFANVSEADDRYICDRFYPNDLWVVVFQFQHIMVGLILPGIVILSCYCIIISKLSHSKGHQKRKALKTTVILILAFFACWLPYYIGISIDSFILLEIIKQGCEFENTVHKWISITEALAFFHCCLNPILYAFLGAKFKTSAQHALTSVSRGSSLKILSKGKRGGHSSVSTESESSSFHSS
Protocol: as §1

mouse CCR6 = target: T5, mouse CCR6 (mouse, UniProt O54689 1-367); assay: FACS, CHO-mouse CCR6 cells
T5 construct: whole, on cells; CHO cells; also called CCR6 (mouse)
T5 sequence (looked up): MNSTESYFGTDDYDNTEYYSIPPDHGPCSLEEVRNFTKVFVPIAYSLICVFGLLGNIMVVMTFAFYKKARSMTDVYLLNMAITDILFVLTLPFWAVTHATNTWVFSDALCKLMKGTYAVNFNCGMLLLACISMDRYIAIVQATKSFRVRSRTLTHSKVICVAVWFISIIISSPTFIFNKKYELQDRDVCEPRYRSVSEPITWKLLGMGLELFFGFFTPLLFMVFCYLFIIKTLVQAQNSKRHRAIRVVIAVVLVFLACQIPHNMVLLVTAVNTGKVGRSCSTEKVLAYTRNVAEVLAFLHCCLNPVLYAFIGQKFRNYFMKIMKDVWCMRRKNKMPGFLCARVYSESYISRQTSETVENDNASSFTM
Protocol: as §1

human CXCR7 = target: T6, human CXCR7 (human, UniProt P25106 1-362); assay: FACS, CHO-human CXCR7 cells
T6 construct: whole, on cells; CHO cells
T6 sequence (P25106 whole entry): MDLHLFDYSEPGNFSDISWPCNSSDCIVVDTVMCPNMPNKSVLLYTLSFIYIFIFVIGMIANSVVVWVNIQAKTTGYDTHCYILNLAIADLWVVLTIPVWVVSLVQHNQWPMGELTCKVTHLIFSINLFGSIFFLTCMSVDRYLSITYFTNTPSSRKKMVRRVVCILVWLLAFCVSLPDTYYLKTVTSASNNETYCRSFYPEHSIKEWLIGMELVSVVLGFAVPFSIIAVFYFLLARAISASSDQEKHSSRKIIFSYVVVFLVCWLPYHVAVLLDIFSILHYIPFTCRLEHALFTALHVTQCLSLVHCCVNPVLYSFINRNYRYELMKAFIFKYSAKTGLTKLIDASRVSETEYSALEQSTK

human CCR6 = target: T7, human CCR6 (human, UniProt P51684 1-374); assay: FACS, CHO-human CCR6 cells
T7 construct: whole, on cells; CHO cells; also called CCR6 (human)
T7 sequence (looked up): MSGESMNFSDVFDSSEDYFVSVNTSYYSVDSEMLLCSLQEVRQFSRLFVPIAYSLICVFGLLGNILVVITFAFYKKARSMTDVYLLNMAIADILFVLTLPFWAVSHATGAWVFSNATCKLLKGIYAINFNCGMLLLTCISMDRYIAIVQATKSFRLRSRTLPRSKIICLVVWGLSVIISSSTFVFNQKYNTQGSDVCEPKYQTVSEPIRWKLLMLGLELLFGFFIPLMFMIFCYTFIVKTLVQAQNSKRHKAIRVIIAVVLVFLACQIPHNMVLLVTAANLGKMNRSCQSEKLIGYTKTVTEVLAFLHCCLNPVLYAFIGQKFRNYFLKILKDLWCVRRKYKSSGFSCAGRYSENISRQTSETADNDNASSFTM
Protocol: as §1

B1: MSM-R735 (fully human anti-human CCR7 antibody, IgG1) (antibody)
heavy: not shown
light: EIVLTQSPGTLSLSPGERATLSCRASQSVSSSYLAWYQQKPGQAPRLLIYGASSRATGIPDRFSGSGSGTDFTLTISRLEPEDFAVYYCQQGSPVTFGQGTKVEIKRTVAAPSVFIFPPSDEQLKSGTASVVCLLNNFYPREAKVQWKVDNALQSGNSQESVTEQDSKDSTYSLSSTLTLSKADYEKHKVYACEVTHQGLSSPVTKSFNRGEC
notes: IgG1 format; also called R735 Human IgG1
- binding result (human CCR10): no binding (tested: 200 nM MAB mixed 1:1 with cells)
- binding result (human CXCR3): no binding (tested: 200 nM MAB mixed 1:1 with cells)
- binding result (human CCR4): no binding (tested: 200 nM MAB mixed 1:1 with cells)
- binding result (human CXCR4): no binding (tested: 200 nM MAB mixed 1:1 with cells)
- binding result (mouse CCR6): no binding (tested: 200 nM MAB mixed 1:1 with cells)
- binding result (human CXCR7): no binding (tested: 200 nM MAB mixed 1:1 with cells)
- binding result (human CCR6): no binding (tested: 200 nM MAB mixed 1:1 with cells)

B2: MSM-R710 (fully human anti-human CCR7 antibody, IgG1) (antibody, V domains shown)
VH: EVQLLESGGGLVQPGGSLRLSCAASGFTFSNYTMHWVRQAPGKGLEWVSGIGPRSGRTYYADSVKGRFTISRDNSKNTLYLQMNSLRAEDTAVYYCARSYAYQYRGFDYWGQGTLVTVSS
VL: EIVLTQSPGTLSLSPGERATLSCRASQSVSSSYLAWYQQKPGQAPRLLIYGASSRATGIPDRFSGSGSGTDFTLTISRLEPEDFAVYYCQSSVTFGQGTKVEIKR
notes: IgG1 format
- binding result (human CCR10): no binding (tested: 200 nM MAB mixed 1:1 with cells)
- binding result (human CXCR3): no binding (tested: 200 nM MAB mixed 1:1 with cells)
- binding result (human CCR4): no binding (tested: 200 nM MAB mixed 1:1 with cells)
- binding result (human CXCR4): no binding (tested: 200 nM MAB mixed 1:1 with cells)
- binding result (mouse CCR6): no binding (tested: 200 nM MAB mixed 1:1 with cells)
- binding result (human CXCR7): no binding (tested: 200 nM MAB mixed 1:1 with cells)
- binding result (human CCR6): no binding (tested: 200 nM MAB mixed 1:1 with cells)
